{
  "source": "patent US20200255543A1",
  "about": "(ROCKEFELLER UNIVERSITY, published 2020)",
  "binders": {"B1": {"name": "monoclonal antibody M6 (antibody, V domains shown)", "VH": "QVKLEESGPELKKPGETVKISCKASGYTFTNYGMNWVKQAPGKGLKWMGWINTYTGEPTYADDFKGRFVFSLETSASTAYLQINNLKNEDMATYFCARKSTVVSRYFDVWGAGTTVTVSS", "VL": "DIVLTQTHKFMSTSVGDRVSITCKASQDVGDAVTWCQQKPGQPPKLLIYWASTRHTGVPDRFTGSGSGTDFTLTINNVQSEDLADYFCQQYRSYPLTFGAGTKLELKR", "notes": "Mouse hybridoma monoclonal antibody; Hybridoma supernatant was used in the ELISA screen, purified antibody in biolayer interferometry; also called Mer-M6"}},
  "key": {"[1]": {"biological_target": "T1, recombinant human MERTK (human, UniProt Q12866 21-505, limits assumed)", "T1 construct": "Analyte in solution in biolayer interferometry; also called hMer", "T1 sequence": "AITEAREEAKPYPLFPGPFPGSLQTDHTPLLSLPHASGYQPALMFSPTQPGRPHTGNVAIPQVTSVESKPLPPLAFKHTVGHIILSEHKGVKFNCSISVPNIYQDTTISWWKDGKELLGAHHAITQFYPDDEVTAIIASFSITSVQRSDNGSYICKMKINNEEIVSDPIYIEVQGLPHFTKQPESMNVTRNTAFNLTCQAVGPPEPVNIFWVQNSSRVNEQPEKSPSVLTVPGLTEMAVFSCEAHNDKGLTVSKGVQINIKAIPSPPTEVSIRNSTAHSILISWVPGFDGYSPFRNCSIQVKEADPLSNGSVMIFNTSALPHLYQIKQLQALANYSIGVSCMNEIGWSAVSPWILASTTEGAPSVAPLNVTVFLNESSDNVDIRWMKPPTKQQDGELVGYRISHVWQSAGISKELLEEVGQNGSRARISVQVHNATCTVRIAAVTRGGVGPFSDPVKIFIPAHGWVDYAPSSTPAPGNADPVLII", "test": "biolayer interferometry, M6 loaded on AMQ sensor, hMer analyte from 5 nM in 2-fold dilutions, 1:1 model, global fit", "protocol": "(§1) FIG. 11: M6 binds to MERTK with high affinity. M6 binds to human MERTK with high affinity. A diagram showing antibody binding kinetics for M6 (Mer-M6) against human MERTK (hMer) using biolayer interferometry. Purified M6 was loaded on an AMQ sensor at a concentration of 1 microgram/mL to test binding against analytes in solution. All analytes were prepared at 5 nM with a 2-fold dilution series for a total of 7 concentrations. Kinetic fits were calculated using a 1:1 model, with Local fits for each concentration as well as an overall Global fit."}, "[2]": {"biological_target": "T1, recombinant human MERTK", "test": "biolayer interferometry, M6 loaded on AMQ sensor at 1 ug/mL, hMer in solution at 0.1563 nM, local 1:1 fit", "protocol": "as §1"}, "[3]": {"biological_target": "T1, recombinant human MERTK", "test": "biolayer interferometry, M6 loaded on AMQ sensor at 1 ug/mL, hMer in solution at 5 to 0.0781 nM, global 1:1 fit", "protocol": "as §1"}, "[4]": {"biological_target": "T1, recombinant human MERTK", "test": "biolayer interferometry, M6 loaded on AMQ sensor at 1 ug/mL, hMer in solution at 5 nM, local 1:1 fit", "protocol": "as §1"}, "[5]": {"biological_target": "T1, recombinant human MERTK", "test": "biolayer interferometry, M6 loaded on AMQ sensor at 1 ug/mL, hMer in solution at 1.25 nM, local 1:1 fit", "protocol": "as §1"}, "[6]": {"biological_target": "T1, recombinant human MERTK", "test": "biolayer interferometry, M6 loaded on AMQ sensor at 1 ug/mL, hMer in solution at 0.625 nM, local 1:1 fit", "protocol": "as §1"}, "[7]": {"biological_target": "T1, recombinant human MERTK", "test": "biolayer interferometry, M6 loaded on AMQ sensor at 1 ug/mL, hMer in solution at 0.3125 nM, local 1:1 fit", "protocol": "as §1"}, "[8]": {"biological_target": "T1, recombinant human MERTK", "test": "biolayer interferometry, M6 loaded on AMQ sensor at 1 ug/mL, hMer in solution at 2.5 nM, local 1:1 fit", "protocol": "as §1"}, "[9]": {"biological_target": "T1, recombinant human MERTK", "test": "biolayer interferometry, M6 loaded on AMQ sensor at 1 ug/mL, hMer in solution at 0.0781 nM, local 1:1 fit", "protocol": "as §1"}},
  "data": [
    {"binder": "B1", "values": [
      {"measurement": "Kd", "setting": "[1]", "value": 4.6, "unit": "pM"},
      {"measurement": "Kd", "setting": "[2]", "value": 0.0652, "unit": "pM"},
      {"measurement": "koff", "setting": "[2]", "value": "9.22e-07", "unit": "s⁻¹"},
      {"measurement": "kon", "setting": "[2]", "value": "1.41e+07", "unit": "M⁻¹ s⁻¹"},
      {"measurement": "koff", "setting": "[3]", "value": "9.55e-06", "unit": "s⁻¹"},
      {"measurement": "kon", "setting": "[3]", "value": "2.07e+06", "unit": "M⁻¹ s⁻¹"},
      {"measurement": "Kd", "setting": "[4]", "value": 0.634, "unit": "pM"},
      {"measurement": "koff", "setting": "[4]", "value": "1.5e-06", "unit": "s⁻¹"},
      {"measurement": "kon", "setting": "[4]", "value": "2.37e+06", "unit": "M⁻¹ s⁻¹"},
      {"measurement": "Kd", "setting": "[5]", "value": 49.8, "unit": "pM"},
      {"measurement": "koff", "setting": "[5]", "value": 0.000156, "unit": "s⁻¹"},
      {"measurement": "kon", "setting": "[5]", "value": "3.12e+06", "unit": "M⁻¹ s⁻¹"},
      {"measurement": "Kd", "setting": "[6]", "value": 0.0131, "unit": "pM"},
      {"measurement": "koff", "setting": "[6]", "value": "7.27e-08", "unit": "s⁻¹"},
      {"measurement": "kon", "setting": "[6]", "value": "5.57e+06", "unit": "M⁻¹ s⁻¹"},
      {"measurement": "Kd", "setting": "[7]", "value": 0.00312, "unit": "pM"},
      {"measurement": "koff", "setting": "[7]", "value": "3.3e-08", "unit": "s⁻¹"},
      {"measurement": "kon", "setting": "[7]", "value": "1.06e+07", "unit": "M⁻¹ s⁻¹"},
      {"measurement": "Kd", "setting": "[8]", "value": 2.09, "unit": "pM"},
      {"measurement": "koff", "setting": "[8]", "value": "4.46e-06", "unit": "s⁻¹"},
      {"measurement": "kon", "setting": "[8]", "value": "2.13e+06", "unit": "M⁻¹ s⁻¹"},
      {"measurement": "Kd", "setting": "[9]", "value": 0.823, "unit": "pM"},
      {"measurement": "koff", "setting": "[9]", "value": "2.49e-05", "unit": "s⁻¹"},
      {"measurement": "kon", "setting": "[9]", "value": "3.03e+07", "unit": "M⁻¹ s⁻¹"}
    ]}
  ]
}
